{
  "source": "the Human Domainome abundance scans (Beltran et al. 2025)",
  "parents": {"B1": {"name": "REST corepressor 3, residues 87 to 134; numbered along this chain, Q9P2K3 (parent)", "chain": "DEWTVEDKVLFEQAFSFHGKSFHRIQQMLPDKTIASLVKYYYSWKKTR"}},
  "note": "± gives the uncertainty stated by the source.",
  "data": [
    {"variants_of": "B1", "experiment": "abundance fitness (aPCA) (normalised: wild type 0, dead -1); higher = more abundant; growth selection in yeast, the domain comes from the species named", "conditions": "Homo sapiens", "values": [
      {"variant": "DEWTVEDKVLFEQAFSFHGKSFHRIQQMLPDKTIASLVKYYYSWVKTR", "note": "[K45V]", "abundance fitness": "-0.454 ± 0.22"},
      {"variant": "DEWTVEDKVLFEQAFSFHGKSFHRIQQMLPDKTIASLVKYYYSWCKTR", "note": "[K45C]", "abundance fitness": "-0.616 ± 0.32"},
      {"variant": "DEWTVEDKVLFEQAFSFHGKSFHRIQQMLPDKTIASLVKYYYSWWKTR", "note": "[K45W]", "abundance fitness": "-0.61 ± 0.22"},
      {"variant": "DEWTVEDKVLFEQAFSFHGKSFHRIQQMLPDKTIASLVKYYYSWYKTR", "note": "[K45Y]", "abundance fitness": "0.357 ± 0.19"},
      {"variant": "DEWTVEDKVLFEQAFSFHGKSFHRIQQMLPDKTIASLVKYYYSWNKTR", "note": "[K45N]", "abundance fitness": "0.014 ± 0.4"},
      {"variant": "DEWTVEDKVLFEQAFSFHGKSFHRIQQMLPDKTIASLVKYYYSWFKTR", "note": "[K45F]", "abundance fitness": "-0.493 ± 0.34"},
      {"variant": "DEWTVEDKVLFEQAFSFHGKSFHRIQQMLPDKTIASLVKYYYSWAKTR", "note": "[K45A]", "abundance fitness": "-0.336 ± 0.17"},
      {"variant": "DEWTVEDKVLFEQAFSFHGKSFHRIQQMLPDKTIASLVKYYYSWEKTR", "note": "[K45E]", "abundance fitness": "-0.546 ± 0.29"},
      {"variant": "DEWTVEDKVLFEQAFSFHGKSFHRIQQMLPDKTIASLVKYYYSWMKTR", "note": "[K45M]", "abundance fitness": "0.081 ± 0.2"},
      {"variant": "DEWTVEDKVLFEQAFSFHGKSFHRIQQMLPDKTIASLVKYYYSWLKTR", "note": "[K45L]", "abundance fitness": "-0.597 ± 0.25"},
      {"variant": "DEWTVEDKVLFEQAFSFHGKSFHRIQQMLPDKTIASLVKYYYSWSKTR", "note": "[K45S]", "abundance fitness": "-0.143 ± 0.12"},
      {"variant": "DEWTVEDKVLFEQAFSFHGKSFHRIQQMLPDKTIASLVKYYYSWIKTR", "note": "[K45I]", "abundance fitness": "-0.424 ± 0.34"},
      {"variant": "DEWTVEDKVLFEQAFSFHGKSFHRIQQMLPDKTIASLVKYYYSWGKTR", "note": "[K45G]", "abundance fitness": "-0.69 ± 0.43"},
      {"variant": "DEWTVEDKVLFEQAFSFHGKSFHRIQQMLPDKTIASLVKYYYSWQKTR", "note": "[K45Q]", "abundance fitness": "-0.102 ± 0.25"},
      {"variant": "DEWTVEDKVLFEQAFSFHGKSFHRIQQMLPDKTIASLVKYYYSWRKTR", "note": "[K45R]", "abundance fitness": "-0.087 ± 0.095"},
      {"variant": "DEWTVEDKVLFEQAFSFHGKSFHRIQQMLPDKTIASLVKYYYSWKKLR", "note": "[T47L]", "abundance fitness": "-0.408 ± 0.26"},
      {"variant": "DEWTVEDKVLFEQAFSFHGKSFHRIQQMLPDKTIASLVKYYYSWKKQR", "note": "[T47Q]", "abundance fitness": "-0.979 ± 0.16"},
      {"variant": "DEWTVEDKVLFEQAFSFHGKSFHRIQQMLPDKTIASLVKYYYSWKKRR", "note": "[T47R]", "abundance fitness": "-0.071 ± 0.22"},
      {"variant": "DEWTVEDKVLFEQAFSFHGKSFHRIQQMLPDKTIASLVKYYYSWKKPR", "note": "[T47P]", "abundance fitness": "-0.075 ± 0.16"},
      {"variant": "DEWTVEDKVLFEQAFSFHGKSFHRIQQMLPDKTIASLVKYYYSWKKSR", "note": "[T47S]", "abundance fitness": "-0.463 ± 0.21"},
      {"variant": "DEWTVEDKVLFEQAFSFHGKSFHRIQQMLPDKTIASLVKYYYSWKKAR", "note": "[T47A]", "abundance fitness": "-0.672 ± 0.15"},
      {"variant": "DEWTVEDKVLFEQAFSFHGKSFHRIQQMLPDKTIASLVKYYYSWKKER", "note": "[T47E]", "abundance fitness": "-0.493 ± 0.4"},
      {"variant": "DEWTVEDKVLFEQAFSFHGKSFHRIQQMLPDKTIASLVKYYYSWKKIR", "note": "[T47I]", "abundance fitness": "-0.623 ± 0.49"},
      {"variant": "DEWTVEDKVLFEQAFSFHGKSFHRIQQMLPDKTIASLVKYYYSKKKTR", "note": "[W44K]", "abundance fitness": "-0.393 ± 0.3"},
      {"variant": "DEWTVEDKVLFEQAFSFHGKSFHRIQQMLPDKTIASLVKYYYSLKKTR", "note": "[W44L]", "abundance fitness": "-0.329 ± 0.15"},
      {"variant": "DEWTVEDKVLFEQAFSFHGKSFHRIQQMLPDKTIASLVKYYYSGKKTR", "note": "[W44G]", "abundance fitness": "-0.649 ± 0.14"},
      {"variant": "DEWTVEDKVLFEQAFSFHGKSFHRIQQMLPDKTIASLVKYYYSVKKTR", "note": "[W44V]", "abundance fitness": "-1 ± 0.43"},
      {"variant": "DEWTVEDKVLFEQAFSFHGKSFHRIQQMLPDKTIASLVKYYYSAKKTR", "note": "[W44A]", "abundance fitness": "-0.78 ± 0.21"},
      {"variant": "DEWTVEDKVLFEQAFSFHGKSFHRIQQMLPDKTIASLVKYYYSRKKTR", "note": "[W44R]", "abundance fitness": "-0.541 ± 0.16"},
      {"variant": "DEWTVEDKVLFEQAFSFHGKSFHRIQQMLPDKTIASLVKYYYSSKKTR", "note": "[W44S]", "abundance fitness": "-0.548 ± 0.29"},
      {"variant": "DEWTVEDKVLFEQAFSFHGKSFHRIQQMLPDKTIASLVKYYYSTKKTR", "note": "[W44T]", "abundance fitness": "-0.394 ± 0.22"},
      {"variant": "DEWTVEDKVLFEQAFSFHGKSFHRIQQMLPDKTIASLVKYYYSDKKTR", "note": "[W44D]", "abundance fitness": "0.738 ± 0.36"},
      {"variant": "DEWTVEDKVLFEQAFSFHGKSFHRIQQMLPDKTIASLVKYYYSFKKTR", "note": "[W44F]", "abundance fitness": "0.414 ± 0.18"},
      {"variant": "DEWTVEDKVLFEQAFSFHGKSFHRIQQMLPDKTIASLVKYYYVWKKTR", "note": "[S43V]", "abundance fitness": "-0.076 ± 0.046"},
      {"variant": "DEWTVEDKVLFEQAFSFHGKSFHRIQQMLPDKTIASLVKYYYTWKKTR", "note": "[S43T]", "abundance fitness": "-0.312 ± 0.14"},
      {"variant": "DEWTVEDKVLFEQAFSFHGKSFHRIQQMLPDKTIASLVKYYYMWKKTR", "note": "[S43M]", "abundance fitness": "-0.547 ± 0.17"},
      {"variant": "DEWTVEDKVLFEQAFSFHGKSFHRIQQMLPDKTIASLVKYYYFWKKTR", "note": "[S43F]", "abundance fitness": "-0.577 ± 0.39"},
      {"variant": "DEWTVEDKVLFEQAFSFHGKSFHRIQQMLPDKTIASLVKYYYRWKKTR", "note": "[S43R]", "abundance fitness": "0.021 ± 0.052"},
      {"variant": "DEWTVEDKVLFEQAFSFHGKSFHRIQQMLPDKTIASLVKYYYGWKKTR", "note": "[S43G]", "abundance fitness": "-0.154 ± 0.055"},
      {"variant": "DEWTVEDKVLFEQAFSFHGKSFHRIQQMLPDKTIASLVKYYYKWKKTR", "note": "[S43K]", "abundance fitness": "0.134 ± 0.28"},
      {"variant": "DEWTVEDKVLFEQAFSFHGKSFHRIQQMLPDKTIASLVKYYYLWKKTR", "note": "[S43L]", "abundance fitness": "-0.49 ± 0.16"},
      {"variant": "DEWTVEDKVLFEQAFSFHGKSFHRIQQMLPDKTIASLVKYYYNWKKTR", "note": "[S43N]", "abundance fitness": "-0.172 ± 0.31"},
      {"variant": "DEWTVEDKVLFEQAFSFHGKSFHRIQQMLPDKTIASLVKYYYWWKKTR", "note": "[S43W]", "abundance fitness": "-0.327 ± 0.11"},
      {"variant": "DEWTVEDKVLFEQAFSFHGKSFHRIQQMLPDKTIASLVKYYYSWKSTR", "note": "[K46S]", "abundance fitness": "-0.467 ± 0.12"},
      {"variant": "DEWTVEDKVLFEQAFSFHGKSFHRIQQMLPDKTIASLVKYYYSWKTTR", "note": "[K46T]", "abundance fitness": "-0.756 ± 0.2"},
      {"variant": "DEWTVEDKVLFEQAFSFHGKSFHRIQQMLPDKTIASLVKYYYSWKPTR", "note": "[K46P]", "abundance fitness": "-0.782 ± 0.26"},
      {"variant": "DEWTVEDKVLFEQAFSFHGKSFHRIQQMLPDKTIASLVKYYYSWKGTR", "note": "[K46G]", "abundance fitness": "-0.202 ± 0.069"},
      {"variant": "DEWTVEDKVLFEQAFSFHGKSFHRIQQMLPDKTIASLVKYYYSWKWTR", "note": "[K46W]", "abundance fitness": "-0.729 ± 0.13"},
      {"variant": "DEWTVEDKVLFEQAFSFHGKSFHRIQQMLPDKTIASLVKYYYSWKVTR", "note": "[K46V]", "abundance fitness": "-0.399 ± 0.12"},
      {"variant": "DEWTVEDKVLFEQAFSFHGKSFHRIQQMLPDKTIASLVKYYYSWKHTR", "note": "[K46H]", "abundance fitness": "0.242 ± 0.13"},
      {"variant": "DEWTVEDKVLFEQAFSFHGKSFHRIQQMLPDKTIASLVKYYYSWKATR", "note": "[K46A]", "abundance fitness": "-0.053 ± 0.074"},
      {"variant": "DEWTVEDKVLFEQAFSFHGKSFHRIQQMLPDKTIASLVKYYYSWKETR", "note": "[K46E]", "abundance fitness": "-0.575 ± 0.22"},
      {"variant": "DEWTVEDKVLFEQAFSFHGKSFHRIQQMLPDKTIASLVKYYYSWKLTR", "note": "[K46L]", "abundance fitness": "-0.645 ± 0.13"},
      {"variant": "DEWTVEDKVLFEQAFSFHGKSFHRIQQMLPDKTIASLVKYYYSWKFTR", "note": "[K46F]", "abundance fitness": "-0.54 ± 0.38"}
    ]}
  ]
}
